Test results from US20100061992A1.

Target: mouse TIM-3 on cells (splenic dendritic cells, D2SC1 dendritic cell line, TIM-3+ Th1 T cells) (mouse) (UniProt Q8VIM0)
Test: cell-based or functional assay

Sequence of UniProt Q8VIM0 (Q8VIM0 other isoform, or with tags, fused parts or gaps limits assumed): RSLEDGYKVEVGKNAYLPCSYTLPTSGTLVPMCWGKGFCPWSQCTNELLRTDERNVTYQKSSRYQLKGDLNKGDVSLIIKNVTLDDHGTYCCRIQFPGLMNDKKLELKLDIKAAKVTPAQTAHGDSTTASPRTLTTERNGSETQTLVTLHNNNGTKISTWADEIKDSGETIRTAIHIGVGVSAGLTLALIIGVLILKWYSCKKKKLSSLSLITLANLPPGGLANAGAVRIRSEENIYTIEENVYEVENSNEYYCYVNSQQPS

recombinant human galectin-9 (from UniProt O00182 1-355) (ligand)
production of TNF-α in response to LPS and LPS plus galectin-9, TIM-3-/- DCs relative to wild type DCs: 30 to 40%
